Here are results for one substance from patent publication US20240287175A1.

The target of this test is mouse CD22 (mouse) (UniProt P35329). Put plainly: cell-based or functional assay.
Sequence of UniProt P35329 (P35329 22-868): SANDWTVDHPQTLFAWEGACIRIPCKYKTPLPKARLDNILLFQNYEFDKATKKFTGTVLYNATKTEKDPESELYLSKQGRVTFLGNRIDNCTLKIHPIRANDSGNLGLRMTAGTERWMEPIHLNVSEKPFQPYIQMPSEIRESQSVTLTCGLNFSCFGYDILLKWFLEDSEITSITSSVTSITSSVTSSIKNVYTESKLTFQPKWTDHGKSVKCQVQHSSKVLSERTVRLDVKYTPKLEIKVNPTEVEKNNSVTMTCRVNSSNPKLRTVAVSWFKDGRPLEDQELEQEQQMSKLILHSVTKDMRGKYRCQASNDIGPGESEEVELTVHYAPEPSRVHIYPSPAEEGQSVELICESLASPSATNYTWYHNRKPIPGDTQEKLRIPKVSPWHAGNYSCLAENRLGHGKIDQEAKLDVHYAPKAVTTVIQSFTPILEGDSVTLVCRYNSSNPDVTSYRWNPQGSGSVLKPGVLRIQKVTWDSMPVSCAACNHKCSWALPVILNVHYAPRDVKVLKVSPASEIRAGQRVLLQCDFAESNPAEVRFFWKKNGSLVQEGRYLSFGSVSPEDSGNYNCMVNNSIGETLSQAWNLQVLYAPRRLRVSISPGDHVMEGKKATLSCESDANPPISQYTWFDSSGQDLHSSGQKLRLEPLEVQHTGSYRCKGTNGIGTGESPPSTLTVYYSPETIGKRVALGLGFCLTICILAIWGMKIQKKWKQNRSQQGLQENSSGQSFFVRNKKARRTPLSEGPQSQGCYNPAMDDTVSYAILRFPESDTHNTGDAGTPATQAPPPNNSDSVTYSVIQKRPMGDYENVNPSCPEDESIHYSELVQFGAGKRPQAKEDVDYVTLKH

Consider “mouse monoclonal anti-CD22 antibody (Cy34, BioXCell)”, for which the receptor occupancy necessary to achieve IC50 in the pSHP1/SHP1 assay was < 50%.
